Numbering of substitutions follows the chain as printed. Where no end group is shown, it is not given here. [ ]: non-standard residue; d: D form. The star is where a group is joined. Myristoyl = CCCCCCCCCCCCCC(=O)*; Ac6c = NC1(C(=O)O)CCCCC1; Nle = CCCC[C@H](N)C(=O)O; Orn = NCCC[C@H](N)C(=O)O; Ac5c = NC1(C(=O)O)CCCC1; Aib = CC(C)(N)C(=O)O
T1: human recombinant GIP receptor (human, UniProt P48546 22-466)
T1 construct: whole, on cells; Membranes of CHO-K1 cells expressing the receptor; also called hGIP receptor
T1 sequence (looked up): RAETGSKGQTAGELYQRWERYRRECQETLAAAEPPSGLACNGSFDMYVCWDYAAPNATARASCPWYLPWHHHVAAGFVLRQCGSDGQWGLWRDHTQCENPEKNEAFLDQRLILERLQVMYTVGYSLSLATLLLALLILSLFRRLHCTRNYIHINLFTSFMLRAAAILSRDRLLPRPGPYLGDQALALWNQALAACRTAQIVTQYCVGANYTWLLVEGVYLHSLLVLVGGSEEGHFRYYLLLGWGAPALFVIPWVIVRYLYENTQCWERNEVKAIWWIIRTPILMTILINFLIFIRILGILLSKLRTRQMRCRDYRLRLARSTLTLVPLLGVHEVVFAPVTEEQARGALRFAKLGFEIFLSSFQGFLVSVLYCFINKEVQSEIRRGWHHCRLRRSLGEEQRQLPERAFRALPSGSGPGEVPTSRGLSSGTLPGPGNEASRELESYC

B1: (Pro^3, A5c^11)hGIP(1-30)-NH2 (peptide)
peptide: YAPGTFISDYXIAMDKIHQQDFVNWLLAQK
modifications: A5c at 11; C-terminal amide
B2: (Aib^2, A6c^7)hGIP(1-30)-NH2 (peptide)
peptide: YXEGTFXSDYSIAMDKIHQQDFVNWLLAQK
modifications: Aib at 2; A6c at 7; C-terminal amide
B3: (Aib^2, A5c^11, A6c^14)hGIP(1-30)-NH2 (peptide)
peptide: B1 peptide with A2X, P3E, M14X
modifications: Aib at 2; A5c at 11; A6c at 14; C-terminal amide
B4: (Aib^2, A5c^11, Nle^14)hGIP(1-30)-NH2 (peptide)
peptide: B1 peptide with A2X, P3E, M14X
modifications: Aib at 2; A5c at 11; Nle at 14; C-terminal amide
B5: (Aib^2, A6c^7, Gln^43)hGIP(1-43)-OH (peptide)
peptide: Y[Aib]EGTF[Ac6c]SDYSIAMDKIHQQDFVNWLLAQKGKKNDWKHNITQQ-OH
B6: (Aib^2, A5c^7)hGIP(1-42)-OH (peptide)
peptide: Y[Aib]EGTF[Ac5c]SDYSIAMDKIHQQDFVNWLLAQKGKKNDWKHNITQ-OH
B7: (A5c^2, Nle^14)hGIP(1-42)-OH (peptide)
peptide: YXEGTFISDYSIAXDKIHQQDFVNWLLAQKGKKNDWKHNITQ
modifications: A5c at 2; Nle at 14; C-terminal free acid
B8: (Pro^3, A6c^14)hGIP(1-42)-OH (peptide)
peptide: B7 peptide with X2A, E3P
modifications: A6c at 14; C-terminal free acid
B9: (D-Ala^2, A5c^11,40)hGIP(1-42)-OH (peptide)
peptide: B7 peptide with X2A, S11X, X14M, I40X
modifications: D-Ala at 2; A5c at 11 and 40; C-terminal free acid
notes: X stands for the non-natural residue
B10: (Aib^2, 13, Nle^14)hGIP(1-42)-OH (peptide)
peptide: B7 peptide with A13X
modifications: Aib at 2 and 13; Nle at 14; C-terminal free acid
B11: (Aib^2, A5c^12)hGIP(1-42)-OH (peptide)
peptide: B7 peptide with I12X, X14M
modifications: Aib at 2; A5c at 12; C-terminal free acid
B12: (Aib^2, A6c^7, 14)hGIP(1-42)-OH (peptide)
peptide: B7 peptide with I7X
modifications: Aib at 2; A6c at 7 and 14; C-terminal free acid
B13: (4Hppa^1, Aib^13)hGIP(1-42)-OH (peptide)
peptide: B7 peptide with Y1X, X2A, A13X, X14M
modifications: 4Hppa (3-(4-hydroxyphenyl)propionic acid) at 1; Aib at 13; C-terminal free acid
B14: (Pro^3, A5c^11, A6c^14)hGIP(1-42)-OH (peptide)
peptide: B7 peptide with X2A, E3P, S11X
modifications: A5c at 11; A6c at 14; C-terminal free acid
B15: (Aib^2, 12)hGIP(1-42)-OH (peptide)
peptide: B7 peptide with I12X, X14M
modifications: Aib at 2 and 12; C-terminal free acid
B16: (NMe-Tyr^1, Aib^2, A5c^11, Nle^14)hGIP(1-42)-OH (peptide)
peptide: B7 peptide with Y1X, S11X
modifications: NMe-Tyr at 1; Aib at 2; A5c at 11; Nle at 14; C-terminal free acid
B17: (hPro^3, Aib^13, Nle^14)hGIP(1-42)-OH (peptide)
peptide: B7 peptide with X2A, E3X, A13X
modifications: hPro at 3; Aib at 13; Nle at 14; C-terminal free acid
B18: (Aib^2, A5c^11)hGIP(1-42)-OH (peptide)
peptide: B7 peptide with S11X, X14M
modifications: Aib at 2; A5c at 11; C-terminal free acid
B19: (Aib^2, 11, Nle^14)hGIP(1-42)-OH (peptide)
peptide: B7 peptide with S11X
modifications: Aib at 2 and 11; Nle at 14; C-terminal free acid
B20: (Aib^2, A5c^11, Nle^14)hGIP(1-42)-OH (peptide)
peptide: B7 peptide with S11X
modifications: Aib at 2; A5c at 11; Nle at 14; C-terminal free acid
B21: (D-Ala^2, A5c^11, 41)hGIP(1-42)-OH (peptide)
peptide: B7 peptide with X2A, S11X, X14M, T41X
modifications: D-Ala at 2; A5c at 11 and 41; C-terminal free acid
notes: as for B9
B22: (Aib^2, A5c^11, A6c^14)hGIP(1-42)-OH (peptide)
peptide: B7 peptide with S11X
modifications: Aib at 2; A5c at 11; A6c at 14; C-terminal free acid
B23: (Dhp^3, Aib^13, Nle^14)hGIP(1-42)-OH (peptide)
peptide: B7 peptide with X2A, E3X, A13X
modifications: Dhp at 3; Aib at 13; Nle at 14; C-terminal free acid
B24: (A5c^2, 7, A6c^14)hGIP(1-42)-OH (peptide)
peptide: B7 peptide with I7X
modifications: A5c at 2 and 7; A6c at 14; C-terminal free acid
B25: (Aib^2, A5c^7, A6c^14)hGIP(1-42)-OH (peptide)
peptide: B7 peptide with I7X
modifications: Aib at 2; A5c at 7; A6c at 14; C-terminal free acid
B26: (4Hyp^3, A6c^14)hGIP(1-42)-OH (peptide)
peptide: B7 peptide with X2A, E3X
modifications: 4Hyp at 3; A6c at 14; C-terminal free acid
B27: (Aib^2, A5c^7, 14)hGIP(1-42)-OH (peptide)
peptide: B7 peptide with I7X
modifications: Aib at 2; A5c at 7 and 14; C-terminal free acid
B28: (Pro^3, Aib^13, Nle^14)hGIP(1-42)-OH (peptide)
peptide: B7 peptide with X2A, E3P, A13X
modifications: Aib at 13; Nle at 14; C-terminal free acid
B29: (Tic^3, A5c^11, A6c^14)hGIP(1-42)-OH (peptide)
peptide: B7 peptide with X2A, E3X, S11X
modifications: Tic at 3; A5c at 11; A6c at 14; C-terminal free acid
B30: (Tic^3, A5c^11)hGIP(1-42)-OH (peptide)
peptide: B7 peptide with X2A, E3X, S11X, X14M
modifications: Tic at 3; A5c at 11; C-terminal free acid
B31: (Aib^2, 11, A6c^14)hGIP(1-42)-OH (peptide)
peptide: B7 peptide with S11X
modifications: Aib at 2 and 11; A6c at 14; C-terminal free acid
B32: (Aib^2, A6c^14)hGIP(1-42)-OH (peptide)
peptide: B7 peptide
modifications: Aib at 2; A6c at 14; C-terminal free acid
B33: (D-Ala^2, A6c^11, 14, 41)hGIP(1-42)-OH (peptide)
peptide: B7 peptide with X2A, S11X, T41X
modifications: D-Ala at 2; A6c at 11, 14 and 41; C-terminal free acid
notes: as for B9
B34: (Aib^2, A6c^7, 14)hGIP(1-30)-NH2 (peptide)
peptide: B2 peptide with M14X
modifications: Aib at 2; A6c at 7 and 14; C-terminal amide
B35: [Orn^1(N-C(O)-(CH2)12-CH3), A6c^7]hGIP(1-42)-OH (peptide)
peptide: [Orn](Myristoyl)AEGTF[Ac6c]SDYSIAMDKIHQQDFVNWLLAQKGKKNDWKHNITQ-OH
B36: (Aib^2, 13)hGIP(1-30)-NH2 (peptide)
peptide: B2 peptide with X7I, A13X
modifications: Aib at 2 and 13; C-terminal amide
B37: (Aib^2, A6c^7)hGIP(1-42)-OH (peptide)
peptide: Y[Aib]EGTF[Ac6c]SDYSIAMDKIHQQDFVNWLLAQKGKKNDWKHNITQ-OH
B38: (Aib^2, A5c^7, Nle^14)hGIP(1-42)-OH (peptide)
peptide: Y[Aib]EGTF[Ac5c]SDYSIA[Nle]DKIHQQDFVNWLLAQKGKKNDWKHNITQ-OH
B39: (D-Ala^2, A5c^11, His^43)hGIP(1-43)-OH (peptide)
peptide: YAEGTFISDYXIAMDKIHQQDFVNWLLAQKGKKNDWKHNITQH
modifications: D-Ala at 2; A5c at 11; C-terminal free acid
notes: as for B9
B40: (Gly^2, A5c^11, His^43)hGIP(1-43)-OH (peptide)
peptide: B39 peptide with A2G
modifications: A5c at 11; C-terminal free acid
B41: (Aib^2, A5c^11)hGIP(1-30)-NH2 (peptide)
peptide: B1 peptide with A2X, P3E
modifications: Aib at 2; A5c at 11; C-terminal amide
B42: [Pro^3]hGIP(1-42)-OH (peptide)
peptide: YAPGTFISDYSIAMDKIHQQDFVNWLLAQKGKKNDWKHNITQ-OH
B43: (Aib^2, 5)hGIP(1-42)-OH (peptide)
peptide: Y[Aib]EG[Aib]FISDYSIAMDKIHQQDFVNWLLAQKGKKNDWKHNITQ-OH
B44: (Aib^2, 13, Nle^14)hGIP(1-30)-NH2 (peptide)
peptide: B2 peptide with X7I, A13X, M14X
modifications: Aib at 2 and 13; Nle at 14; C-terminal amide
B45: (Aib^2, 13, Pro^3, Nle^14)hGIP(1-30)-NH2 (peptide)
peptide: Y[Aib]PGTFISDYSI[Aib][Nle]DKIHQQDFVNWLLAQK-NH2
B46: (Aib^2, A6c^7, Nle^14)hGIP(1-42)-OH (peptide)
peptide: Y[Aib]EGTF[Ac6c]SDYSIA[Nle]DKIHQQDFVNWLLAQKGKKNDWKHNITQ-OH
B47: (Aib^2, A5c^5)hGIP(1-42)-OH (peptide)
peptide: Y[Aib]EG[Ac5c]FISDYSIAMDKIHQQDFVNWLLAQKGKKNDWKHNITQ-OH

Experiments:
[1] = target: T1, human recombinant GIP receptor; assay: [125I]GIP competition, membranes of CHO-K1 cells expressing human GIP receptor
[2] = target: T1, human recombinant GIP receptor; assay: [125I]GIP competition, membranes of CHO-K1 cells expressing human GIP receptor, same conditions as Table 2

Binder	Ki [1]	Ki [2]
B1	65.8 nM	–
B2	0.03 nM	–
B3	0.15 nM	–
B4	0.16 nM	–
B5	0.94 nM	–
B6	0.41 nM	–
B7	15.9 nM	–
B8	214 nM	–
B9	0.59 nM	–
B10	0.05 nM	–
B11	1.65 nM	–
B12	0.83 nM	–
B13	2.25 nM	–
B14	648 nM	–
B15	4.98 nM	–
B16	0.19 nM	–
B17	330 nM	–
B18	0.08 nM	–
B19	0.29 nM	–
B20	0.43 nM	–
B21	0.36 nM	–
B22	0.18 nM	–
B23	727 nM	–
B24	34.4 nM	–

Binder	Ki [1]	Ki [2]
B25	0.63 nM	–
B26	910 nM	–
B27	0.22 nM	–
B28	667 nM	–
B29	754 nM	–
B30	503 nM	–
B31	0.73 nM	–
B32	0.07 nM	–
B33	6.67 nM	–
B34	1.19 nM	–
B35	21.5 nM	–
B36	0.33 nM	–
B37	0.3 nM	–
B38	0.69 nM	–
B39	0.56 nM	–
B40	0.97 nM	–
B41	0.09 nM	–
B42	–	171 nM
B43	4.08 nM	–
B44	0.09 nM	–
B45	0.07 nM	–
B46	0.45 nM	–
B47	2.26 nM	–
